Here are results for two molecules from patent publication US20190264213A1 (YEDA RESEARCH AND DEVELOPMENT, published 2019).

B1: phi3T AimR receptor with C-terminal 6xHis-tag (purified) (receptor)
chain: MIKNECEKDNQLAARLAKLAGYEKVNGFYKFVNTPEKEMENLGGLLKIVKNLFPDSEEQLLSEYFLELDPNKKCARQSVEYSDINQWDTLTDKIIINLCNSKNSTSQEWGKVYSLHRKLNKNEISLNDAIRESGKCKIKSAEMLFFSNAMLMYAYLNIGEFGLMKSTSKLLEFDDLPEGFIKESFKSRVSMLEANISLNENSLLEARQHSNRAIENSNVNRICFFAYLTIGNTLIFEDYDEAKKAYIKGQKYAKNPVHQEMLDGALCFLSNIWKKENQWVNYNSDNIKYLQLRAFYYINQGNIEEATEILDELSSRDQDENELGFYYYYKGLISQDKTDYYKSIRYFKKSDDKYFIQLPLLQLERMGADLELLNLISIHHHHHH
notes: Expressed in E. coli BL21(DE3) from pET28a and purified in two steps; Migrates as a homodimer in gel filtration without peptide and as a monomer with SAIRGA; also called His-tagged AimR; purified AimR
B2: GMPRGA peptide (spBeta arbitrium peptide, mature AimP) (peptide)
peptide: GMPRGA
notes: Synthetic peptide, 98% purity, desalted (Peptide 2.0 Inc.); also called spBeta-derived GMPRGA peptide

Data set [1] concerns the molecule itself. Description: analytical gel filtration (Superdex 200 Increase), self-association.
Experimental: Pure AimR was injected to an analytical gel filtration column (Superdex_200_Increase_10/30 GL, GE Healthcare) equilibrated with buffer containing 20 mM Tris pH 8, 0.3 M NaCl, 2 mM TCEP. […] The column was calibrated (inset of FIG. 4C) by monitoring the migration positions of the following known proteins/polymers: blue dextran (2000 kDa), Thyroglobulin (669 kDa), Apoferritin (443 kDa), beta-amylase (200 kDa), alcohol dehydrogenase (150 kDa), Albumin (66 kDA) and Carbonic anhydrase (29 kDa).
The target in data set [2] is B1. Description: microscale thermophoresis (MST), label-free. On the technique in general: In MST a laser heats a spot of the sample, and binding alters the fluorescence response.
Experimental: Two-step purified 6×His-tagged AimR stored in Tris/NaCl buffer (50 mM Tris pH 8.0, 150 mM NaCl, 2 mM TCEP) at −80° C. was thawed on ice and centrifuged at 21,000 g for 10 minutes at 4° C. prior to analysis. […] AimR was diluted to 200 nM and was incubated with 16 different peptide concentrations varying between 9-4000 nM, which were prepared in Tris/NaCl buffer containing 0.1% [v/v] Pluronic acid (NanoTemper). Roughly 3 μl were loaded into NT.LabelFree Zero-Background Premium Coated Capillaries (NanoTemper) and inserted into a Monolith NT.LabelFree device (NanoTemper). MST experiments were performed at 60% MST power (infra-red laser) and 20% LED power at 23° C. using the Monolith NT.LabelFree instrument (Nanotemper). Ratios between normalized initial fluorescence and post-temperature-jump and thermophoresis were calculated and averaged from 3 independent runs (runs were incubated for 20 minutes at room temperature before the measurement).

Regarding B1, the binding result in data set [1] is given as “binds”.
On to B2, for which the binding result in data set [2] is “no binding (tested: peptide 9-4000 nM, AimR 200 nM)”.
